From patent US11110115B2, “Nucleic acid molecule with anti-inflammatory and anti-coagulant and organ-protective properties” (APTAHEM AB, priority 2017, dated 2021)

Assays:
[1] = tested on: CD11b+CD14+ white blood cells; assay: Flow cytometry of CD11b and CD14 on white blood cells after LPS injection; assay type: in vivo, C57BL/6 mice; details: 2 h after LPS
Description: Female C57BL/6 mice (Taconic Biosciences) were 8 weeks of age at the start of the study. Animals had free access to autoclaved and acidified drinking water. Animals were housed under standard laboratory conditions, air conditioned and filtered with adequate fresh air supply. Animals were kept in a climate controlled environment.
SEQ ID NO:2 (Biospring) (100 mg) was dissolved in 5 ml saline to form a stock solution of 20 mg/ml. Vehicle is saline solution.
Dexamethasone stock was prepared by mixing dexamethasone and beta-cyclodextrin at a 4:96 ratio, solubilized in PBS at 2 mg dexamethasone/mL and stored at −20° C. Dosing solution of dexamethasone was prepared by diluting the stock solution to 1 mg/mL with PBS. Dexamethasone administered at 5 to 10 mg/kg, i.p. is used as a positive control for suppression of the immune response.
Two hours after LPS injection mice were bled and blood samples were taken. Flow cytometry study was performed on BD FACSCalibur (lasers: 488 nm; 635 nm and UV). In our study we measured the expression of integrin Mac-1 (CD11b/18) on leukocytes by means of flow cytometry. Expression of CD11b on all leukocytes monocytes and granulocytes were assessed by flow cytometry using double fluorescence staining (CD 45/CD11b).

[2] = Comparable ex vivo APTT study, human
[3] = Fibrinogen and D-dimer analysis of plasma in LPS-induced shock; assay type: in vivo, C57BL/6 mice; details: blood at Hour 28
Description: In this study, female C57BL/6 mice of 10-12 weeks old (Taconic Biosciences) were used. Animals had free access to autoclaved and acidified drinking water. Animals were housed under standard laboratory conditions, air conditioned and filtered with adequate fresh air supply. Animals were kept in a climate-controlled environment. Lipopolysaccharide (LPS) from E. coli (O111:B4) was diluted in PBS. SEQ ID NO:2 was stored in powder form at 4° C. until use. Powder was added to saline and vortexed into solution to prepare SEQ ID NO:2 stock solution. […] For all other groups, LPS was injected intraperitoneally at 10 mg/kg. Mice were intravenously injected 15 minutes and 60 minutes after LPS administration with SEQ ID NO:2 at concentrations of 10, 25, 50 and 100 mg/kg. Except group 7, which was intravenously injected once at 15 minutes and once at 120 minutes after LPS administration. Blood collected at Hour 28 was analysed for fibrinogen and D-dimer analysis from citrated plasma performed by IDEXX Laboratories, Inc. (N. Grafton, Mass.). Hook Laboratories attempted to collect enough blood to run each analysis 5 times for each group, but in one case (citrated plasma for D-dimer, for Group 4) we were able to collect only enough blood to run the analysis 4 times.

[4] = Activated partial thromboplastin time (APTT) in arteriovenous shunt model; assay type: in vivo, Sprague-Dawley male rats; details: SEQ ID NO:2 33.3 mg/kg i.v. 5 min prior; Rivaroxaban 10 mg/kg p.o. 90 min prior
[5] = Prothrombin time in arteriovenous shunt model; assay type: in vivo, Sprague-Dawley male rats; details: SEQ ID NO:2 33.3 mg/kg i.v. 5 min prior; Rivaroxaban 10 mg/kg p.o. 90 min prior
Description: FIG. 2: Anti-coagulant activity of SEQ ID NO:2 in Arteriovenous Shunt model. Male rats were intravenously injected with saline (Vehicle) or SEQ ID NO:2 solution, according to their body weight. Rivaroxaban was orally administered to the positive control group. 5 to 90 minutes after administration, rats were anesthetized with pentobarbital-na (50 mg/kg). The left jugular vein and the right carotid artery of anesthetized rats were connected with two catheters. The thrombus weight formed on the thread was calculated by subtracting the average weight of the rough nylon thread (A). Prothrombin times were measured (B) and Activated partial thromboplastin times (APTT) were analysed (C). Each bar represents the mean±SEM (n=8 for vehicle and rivaroxaban groups, n=3 for SEQ ID NO:2 group), *p<0.05, **p<0.01, ***p<0.001 vs Vehicle.
The animals were assigned to 3 dosing groups according to the body weight (see table 2). Vehicle treated animals were intravenously injected with saline 90 min prior to shunt assay. The positive control treated animals were orally given Rivaroxaban 10 mg/kg at 90 min prior to shunt assay. SEQ ID NO:2 was intravenously injected 5 min prior to shunt assay.

[6] = Comparable ex vivo APTT study, non-human primate
[7] = Arteriovenous shunt model, thrombus weight; assay type: in vivo, Sprague-Dawley male rats; details: SEQ ID NO:2 33.3 mg/kg i.v. 5 min prior; Rivaroxaban 10 mg/kg p.o. 90 min prior; 15 min extracorporeal circulation
Description: This study was conducted at Shanghai WuXi AppTec Co., Ltd., and in accordance with WuXi IACUC standard animal procedures along with the IACUC guidelines that are in compliance with the Animal Welfare Act, the Guide for the Care and Use of Laboratory Animals, and the Office of Laboratory Animal Welfare (OLAW). Sprague-Dawley male rats with body weight ranging between 150-200 g (Vital River; Bejing, P.R. China) were fed ad libitum a rodent diet. Animals had free access to autoclaved and acidified drinking water. Animals were housed under standard laboratory conditions, air conditioned and filtered with adequate fresh air supply. Animals were kept in a climate controlled environment. Rivaroxaban (10 mg/kg) has been dissolved in water and stored at 4° C. 20 mg SEQ ID NO:2 (Biospring) was dissolved in 3 ml Saline, vortexed for 5 min., sonicated with a water bath ultrasonic for 1 minute to achieve 6.66 mg/ml SEQ ID NO:2. The animals were assigned to 3 dosing groups according to the body weight (see table 2). […] Extracorporeal circulation was maintained for 15 min, the thrombus weight formed on the thread was calculated by subtracting the average weight of the rough nylon thread. Significance of difference between control and treated groups was analyzed by performing analysis of variance (ANOVA) by EXCEL office software.

B1: SEQ ID NO:2: nucleic acid sequence of SEQ ID NO:1 in which each C and U is fluorinated to increase stability in plasma (nucleic acid)
chain: GGGAAUUCGAGCUCGGUACCAACAAUACGACUACACCAUCAAAAGUAUUAUCUUGCAUCGAAGGUUGGCACGUAGCAAGCUCUGCAGUCG
modifications: fluorinated C and U; (6)..(7) uracil is fluorinated; (8)..(8) cytosine is fluorinated; (12)..(12) cytosine is fluorinated; (13)..(13) uracil is fluorinated; (14)..(14) cytosine is fluorinated; (17)..(17) uracil is fluorinated; (19)..(20) cytosine is fluorinated; (23)..(23) cytosine is fluorinated; (26)..(26) uracil is fluorinated; (28)..(28) cytosine is fluorinated; (31)..(31) cytosine is fluorinated; (32)
- expression of CD11b compared to vehicle group ([1]; 5 mg/kg i.v.): similar
- proportion of CD11b+CD14+ cells in white blood cells compared to vehicle group ([1]; 5 mg/kg i.v.): similar
- proportion of CD11b+CD14+ cells in white blood cells compared to vehicle group ([1]; 25 mg/kg i.v.): significantly lower
- expression of CD11b compared to vehicle group ([1]; 25 mg/kg i.v., not statistically significant): lower
- lower expression of CD11b, difference to vehicle group ([1]; 50 mg/kg i.v.): statistically significant
- proportion of CD11b+CD14+ cells in white blood cells compared to vehicle group ([1]; 50 mg/kg i.v.): significantly lower
- positive effect on APTT [2]: confirmed
- Plasma D-dimer concentrations compared to vehicle treated group ([3]; 50 mg/kg at 60 and 120 minutes after LPS): significantly lower
- Plasma D-dimer concentrations compared to vehicle treated group ([3]; 50 mg/kg at 60 and 120 minutes after LPS, listed as Apta-1): greatest reductions
- Plasma D-dimer concentrations compared to vehicle treated group ([3]; 100 mg/kg at 15 and 60 min after LPS): significantly lower
- D-dimer in plasma, dose dependence ([3]; 10, 25, 50, 100 mg/kg i.v. after LPS): reduced D-dimer in a dose dependent manner
- fibrinogen concentrations in plasma compared to vehicle treated mice ([3]; SEQ ID NO:2 treated mice (10, 25, 50, 100 mg/kg i.v.)): no significant differences
- Activated Partial Thromboplastin Time (APTT) compared to vehicle group [4]: significant increase
- Prothrombin times compared to vehicle group [5]: did not show any significant difference
- positive effect on APTT [6]: confirmed
- thrombus weight, less than vehicle group [7]: 48.1%
